Test [1] has as its target Her2 (human epidermal growth factor receptor 2). The test is described as follows: binding affinity, method not stated.
For test [2], the target named is epidermal growth factor receptor (EGFR). The test is described as follows: binding affinity, method not stated.

The source of these data is patent US20250387497A1, “MULTIVALENT MULTISPECIFIC CONJUGATES AND RELATED COMPOSITIONS AND METHODS OF USE” (Purdue Research Foundation, priority 2022, published 2025).

The term Kd denotes the equilibrium constant for the complex coming apart. The low end stands for higher affinity, the high end for lower affinity.

Values joined by “and” are separate entries in the source; they are usually repeats but may differ in a detail not shown here. Equal values may be shown once.

Take FCGDGFYACYMDV [peptide "H", binding motif for Her2, …]: the Kd in test [1] is < 500 nM and 300 nM.
For YHWYGYTPQNVI [peptide "E", binding motif for EGFR, …], the Kd in test [2] is 459000 nM.
